Patent US7902330 (ALBERT EINSTEIN COLLEGE OF MEDICINE OF YESHIVA UNIVERSITY, dated 2011)
Starred links: 1 amine or outer side, 2 acyl side, 3 side chain; linkers in the order of their positions; H or OH if unused. Non-standard residues stand in square brackets, D forms with d. *: point of attachment. 4‑nitrohippuryl = O=C(NCC(=O)*)c1ccc([N+](=O)[O-])cc1; Benzoyl(4-(pyrrol-1-yl)) = O=C(c1ccc(-n2cccc2)cc1)*; bis(2,3-dihydroxybenzyl) = not defined here; Cysteamide = C(CS[*:3])N[*:1]; Dap = NC[C@H](N)C(=O)O

T1: protein kinase C ζ (UniProt Q05513 1-592, limits assumed)
T1 construct: also called PKCζ; PKC ζ
T1 sequence (looked up): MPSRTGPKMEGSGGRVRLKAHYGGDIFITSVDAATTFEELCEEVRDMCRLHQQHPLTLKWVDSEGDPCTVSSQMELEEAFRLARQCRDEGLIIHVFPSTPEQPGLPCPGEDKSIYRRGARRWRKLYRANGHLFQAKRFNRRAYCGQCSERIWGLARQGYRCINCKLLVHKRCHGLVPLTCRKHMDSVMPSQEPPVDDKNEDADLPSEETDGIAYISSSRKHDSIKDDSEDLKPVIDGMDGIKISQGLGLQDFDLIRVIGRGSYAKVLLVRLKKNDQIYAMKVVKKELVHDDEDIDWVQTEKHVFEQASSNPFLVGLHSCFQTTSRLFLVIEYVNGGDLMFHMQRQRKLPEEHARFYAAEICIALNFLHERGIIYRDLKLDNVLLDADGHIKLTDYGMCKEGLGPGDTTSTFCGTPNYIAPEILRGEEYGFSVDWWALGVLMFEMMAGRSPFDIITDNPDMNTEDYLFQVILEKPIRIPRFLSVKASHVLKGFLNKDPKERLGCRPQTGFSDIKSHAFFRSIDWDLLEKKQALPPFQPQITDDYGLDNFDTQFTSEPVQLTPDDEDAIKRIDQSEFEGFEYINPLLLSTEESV

T2: protein kinase C ε (UniProt Q02156 1-737, limits assumed)
T2 sequence (looked up): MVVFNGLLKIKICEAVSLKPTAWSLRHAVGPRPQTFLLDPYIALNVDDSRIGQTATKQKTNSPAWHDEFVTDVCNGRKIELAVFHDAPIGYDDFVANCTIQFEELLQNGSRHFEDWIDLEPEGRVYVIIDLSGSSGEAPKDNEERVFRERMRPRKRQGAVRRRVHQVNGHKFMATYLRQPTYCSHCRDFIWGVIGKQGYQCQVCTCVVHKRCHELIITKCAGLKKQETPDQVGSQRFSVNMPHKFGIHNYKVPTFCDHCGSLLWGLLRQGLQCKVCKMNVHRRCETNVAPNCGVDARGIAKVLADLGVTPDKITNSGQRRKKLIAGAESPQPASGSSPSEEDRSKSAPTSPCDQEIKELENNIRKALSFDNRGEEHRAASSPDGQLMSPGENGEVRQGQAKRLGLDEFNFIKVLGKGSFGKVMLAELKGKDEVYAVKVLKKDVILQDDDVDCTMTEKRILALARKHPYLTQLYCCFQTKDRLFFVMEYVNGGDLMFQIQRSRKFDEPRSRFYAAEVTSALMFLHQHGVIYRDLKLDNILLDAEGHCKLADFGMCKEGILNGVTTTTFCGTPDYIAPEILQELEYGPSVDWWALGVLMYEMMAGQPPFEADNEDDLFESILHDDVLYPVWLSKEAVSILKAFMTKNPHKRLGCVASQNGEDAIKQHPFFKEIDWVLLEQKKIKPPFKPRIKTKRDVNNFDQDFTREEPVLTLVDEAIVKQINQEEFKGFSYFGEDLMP

T3: protein kinase C τ (atypical; ι in the tables) (UniProt P41743 1-596)
T3 sequence (looked up): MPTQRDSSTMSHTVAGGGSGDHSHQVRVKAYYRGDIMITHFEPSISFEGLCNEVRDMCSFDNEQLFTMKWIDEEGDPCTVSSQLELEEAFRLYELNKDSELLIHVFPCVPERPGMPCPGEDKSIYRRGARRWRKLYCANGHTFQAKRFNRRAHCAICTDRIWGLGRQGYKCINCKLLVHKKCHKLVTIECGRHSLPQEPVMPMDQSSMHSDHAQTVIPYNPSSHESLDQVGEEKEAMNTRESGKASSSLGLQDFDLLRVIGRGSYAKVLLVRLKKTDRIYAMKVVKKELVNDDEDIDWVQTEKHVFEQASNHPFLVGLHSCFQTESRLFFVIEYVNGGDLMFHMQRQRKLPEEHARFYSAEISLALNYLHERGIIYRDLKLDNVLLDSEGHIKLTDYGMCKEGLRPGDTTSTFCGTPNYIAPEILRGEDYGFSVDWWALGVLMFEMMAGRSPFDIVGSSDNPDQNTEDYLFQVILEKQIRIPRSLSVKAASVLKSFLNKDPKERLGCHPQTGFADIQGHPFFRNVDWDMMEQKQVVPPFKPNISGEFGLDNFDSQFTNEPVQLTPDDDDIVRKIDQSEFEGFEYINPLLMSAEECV


Key:
protein kinase C ζ [1] = molecular target: T1, protein kinase C ζ; assay: PKC ζ 33P kinase assay, double reciprocal plots at variable peptide substrate; competitive pattern
Experimental: K_i determinations. […] ATP for radioactive detection. 10 µL enzyme diluted buffer containing 20 mM Tris (pH 7.5), PKC (10 ng/well), 0.5 mM DTT, BSA (375 µg/mL) and 0.5 mM EDTA.4Na.2H_2O was added to initiate the reaction. Total reaction volume in each well was 50 µL. All the wells were tested in the same plate and each concentration was tested in triplicate. Subsequent assay workup and scintillation counting were performed as described above. Double reciprocal plots were obtained at different concentrations of substrates. K_i values were calculated using Enzyme Kinetics, SigmaPlot (SPSS Inc.).

protein kinase C η [2] = molecular target: T4, protein kinase C η (UniProt P24723 1-683, limits assumed); assay: cell-based or functional assay
protein kinase C ε [3] = molecular target: T2, protein kinase C ε; assay: cell-based or functional assay
protein kinase C ζ [4] = molecular target: T1, protein kinase C ζ; assay: cell-based or functional assay
protein kinase Cα [5] = molecular target: T5, protein kinase Cα (UniProt P17252 1-672, limits assumed); assay: cell-based or functional assay
protein kinase C θ [6] = molecular target: T6, protein kinase C θ (UniProt Q04759 1-706, limits assumed); assay: cell-based or functional assay
protein kinase C βI [7] = molecular target: T7, protein kinase C βI (UniProt P05771-1 1-671, limits assumed); assay: cell-based or functional assay
protein kinase C γ [8] = molecular target: T8, protein kinase C γ (UniProt P05129 1-697, limits assumed); assay: cell-based or functional assay
[9] = molecular target: T3, protein kinase C τ (atypical; printed ι …); assay: cell-based or functional assay
protein kinase C η [10] = molecular target: T4, protein kinase C η; assay: cell-based or functional assay; remark: listed apart in the source
protein kinase C ε [11] = molecular target: T2, protein kinase C ε; assay: cell-based or functional assay; remark: listed apart in the source
protein kinase C ζ [12] = molecular target: T1, protein kinase C ζ; assay: cell-based or functional assay; remark: listed apart in the source
protein kinase Cα [13] = molecular target: T5, protein kinase Cα; assay: cell-based or functional assay; remark: listed apart in the source
protein kinase C θ [14] = molecular target: T6, protein kinase C θ; assay: cell-based or functional assay; remark: listed apart in the source
protein kinase C βI [15] = molecular target: T7, protein kinase C βI; assay: cell-based or functional assay; remark: listed apart in the source
protein kinase C γ [16] = molecular target: T8, protein kinase C γ; assay: cell-based or functional assay; remark: listed apart in the source
protein kinase Cα [17] = molecular target: T5, protein kinase Cα; assay: equilibrium dialysis with fluorescence read-out, 250 nM PKCα and 500 nM peptide 7, 4° C., without AMP-PNP
Experimental: (§1) Determination of K_D Values. […] All samples were prepared in a buffer containing 50 mM HEPES (pH 7.5), 0.8 mM CaCl_2.2H_2O, 13.6 mM MgCl_2.6H_2O, 0.56 mM EGTA.Na, phosphatidylserine (90 µg/mL), diacylglycerol (16 µg/mL), 4 mM Tris (pH 7.5), 0.2 mM DTT, BSA (146 µg/mL), 0.2 mM EDTA.4Na.2H_2O and AMP-PNP (a nonhydrolyzable ATP analogue) or without AMP-PNP at pH 7.5. Slide-A-Lyzer dialysis slide cassettes (Pierce, 10K MWCO, 0.1-0.5 mL capacity) were employed and contained 250 nM PKCα and 500 nM fluorescein-labeled peptide 7. The slide cassettes contained a final volume of 180 µL. The cassettes were placed in beaker containing a volume of buffer solution that was at least 500-fold greater than that of the sample volume in the dialysis slide cassette. Equilibrium dialysis experiments were performed over a period of 16 hr and maintained at 4° C. The fluorescence intensity of the solutions in the slide cassette (F_i) and in the beaker (F_o) was measured. The excitation wavelength for the fluorescein-labeled peptide 7 was 499 nm and the emission monitored at 519 nm. The K_D values were calculated from Equation 1.

protein kinase Cα [18] = molecular target: T5, protein kinase Cα; assay: equilibrium dialysis with fluorescence read-out, 250 nM PKCα and 500 nM peptide 7, 4° C., with AMP-PNP
Experimental: as §1

T6 sequence (Q04759 whole entry): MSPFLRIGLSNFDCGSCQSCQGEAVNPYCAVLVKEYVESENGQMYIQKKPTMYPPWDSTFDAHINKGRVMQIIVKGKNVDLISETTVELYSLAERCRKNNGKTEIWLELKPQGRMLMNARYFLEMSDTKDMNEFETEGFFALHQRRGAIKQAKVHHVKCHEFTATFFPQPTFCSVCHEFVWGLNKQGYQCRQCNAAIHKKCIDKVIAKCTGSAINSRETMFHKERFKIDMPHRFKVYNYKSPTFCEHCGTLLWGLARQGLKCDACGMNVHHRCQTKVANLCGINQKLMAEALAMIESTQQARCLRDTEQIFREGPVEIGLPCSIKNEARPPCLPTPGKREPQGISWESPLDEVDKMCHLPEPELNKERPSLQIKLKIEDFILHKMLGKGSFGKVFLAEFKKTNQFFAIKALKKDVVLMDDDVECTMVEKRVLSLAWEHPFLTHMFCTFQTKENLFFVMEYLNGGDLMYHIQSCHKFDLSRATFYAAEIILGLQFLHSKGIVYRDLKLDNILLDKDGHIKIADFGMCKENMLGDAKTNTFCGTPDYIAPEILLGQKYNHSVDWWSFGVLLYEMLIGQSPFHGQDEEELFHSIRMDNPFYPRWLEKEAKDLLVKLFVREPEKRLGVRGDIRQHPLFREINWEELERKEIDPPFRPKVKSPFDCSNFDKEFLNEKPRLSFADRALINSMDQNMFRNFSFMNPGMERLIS
T4 sequence (P24723 whole entry): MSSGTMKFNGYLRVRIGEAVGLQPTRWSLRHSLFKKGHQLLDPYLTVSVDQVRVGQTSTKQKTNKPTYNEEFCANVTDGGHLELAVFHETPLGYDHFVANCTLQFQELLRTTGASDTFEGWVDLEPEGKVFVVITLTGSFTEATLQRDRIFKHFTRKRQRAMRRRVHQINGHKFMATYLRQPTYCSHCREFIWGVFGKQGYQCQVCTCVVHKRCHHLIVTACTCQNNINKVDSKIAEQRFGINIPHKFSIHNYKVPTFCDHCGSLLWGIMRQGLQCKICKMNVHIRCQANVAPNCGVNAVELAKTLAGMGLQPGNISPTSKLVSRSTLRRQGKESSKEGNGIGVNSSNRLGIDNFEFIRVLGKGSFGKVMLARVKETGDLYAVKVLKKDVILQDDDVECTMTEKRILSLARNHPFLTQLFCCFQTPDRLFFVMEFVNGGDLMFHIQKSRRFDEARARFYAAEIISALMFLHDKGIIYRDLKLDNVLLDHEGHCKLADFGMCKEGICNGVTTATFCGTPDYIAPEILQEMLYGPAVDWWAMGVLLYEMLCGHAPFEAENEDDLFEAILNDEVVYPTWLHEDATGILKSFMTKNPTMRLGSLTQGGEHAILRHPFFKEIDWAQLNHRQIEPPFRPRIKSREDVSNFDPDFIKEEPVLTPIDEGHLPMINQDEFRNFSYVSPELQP
T7 sequence (P05771 whole entry): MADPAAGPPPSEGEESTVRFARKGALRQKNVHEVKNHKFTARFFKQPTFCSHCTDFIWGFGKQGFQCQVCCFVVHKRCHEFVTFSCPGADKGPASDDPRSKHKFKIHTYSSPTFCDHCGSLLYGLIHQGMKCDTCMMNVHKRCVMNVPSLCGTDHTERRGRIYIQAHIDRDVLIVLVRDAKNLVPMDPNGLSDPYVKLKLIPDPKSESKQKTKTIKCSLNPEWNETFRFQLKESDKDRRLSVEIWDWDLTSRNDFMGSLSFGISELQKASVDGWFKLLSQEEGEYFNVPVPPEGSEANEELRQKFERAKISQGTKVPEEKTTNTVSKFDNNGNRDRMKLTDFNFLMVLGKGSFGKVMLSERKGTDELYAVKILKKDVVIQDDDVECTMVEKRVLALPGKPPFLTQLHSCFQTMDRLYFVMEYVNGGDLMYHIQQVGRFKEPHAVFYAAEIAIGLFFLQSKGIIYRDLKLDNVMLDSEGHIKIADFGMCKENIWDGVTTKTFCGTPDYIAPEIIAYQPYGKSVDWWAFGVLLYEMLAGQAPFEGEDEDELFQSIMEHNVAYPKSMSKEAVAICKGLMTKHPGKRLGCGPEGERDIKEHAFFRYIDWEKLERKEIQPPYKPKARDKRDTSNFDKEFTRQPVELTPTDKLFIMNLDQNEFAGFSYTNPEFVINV

Binder	Ki (protein kinase C ζ [1])	IC50, PKC kinase assay (33P, peptide substrate) (protein kinase C η [2])	IC50, PKC kinase assay (33P, peptide substrate) (protein kinase C ε [3])	IC50, PKC kinase assay (33P, peptide substrate) (protein kinase C ζ [4])	IC50, PKC kinase assay (33P, peptide substrate) (protein kinase Cα [5])	IC50, PKC kinase assay (33P, peptide substrate) (protein kinase C θ [6])	IC50, PKC kinase assay (33P, peptide substrate) (protein kinase C βI [7])	IC50, PKC kinase assay (33P, peptide substrate) (protein kinase C γ [8])	Fold selectivity (IC50), PKC ζ = 1 [9]	Fold selectivity (IC50), PKC ζ = 1 (protein kinase C η [10])	Fold selectivity (IC50), PKC ζ = 1 (protein kinase C ε [11])	Fold selectivity (IC50), PKC ζ = 1 (protein kinase C ζ [12])	IC50 or Ki of the most potently inhibited isoform (protein kinase C ζ [12])	Fold selectivity (IC50), PKC ζ = 1 (protein kinase Cα [13])	Fold selectivity (IC50), PKC ζ = 1 (protein kinase C θ [14])	Fold selectivity (IC50), PKC ζ = 1 (protein kinase C βI [15])	Fold selectivity (IC50), PKC ζ = 1 (protein kinase C γ [16])	Kd (protein kinase Cα [17])	Kd (protein kinase Cα [18])
{bis(2,3-dihydroxybenzyl)}-RRQG[Dap](4‑nitrohippuryl)FMYF-Cysteamide (reading uncertain) [Compound G (doubly alkylated analogue of F)]	0.0039 µM	15.3 µM	34.5 µM	0.00075 µM	47.5 µM	16.7 µM	5.5 µM	38.2 µM	1490 fold	2040 fold	4600 fold	1 fold	0.0075 µM	6330 fold	2230 fold	730 fold	5090 fold		
Ac-ARRGALR[Dap](Benzoyl(4-(pyrrol-1-yl)))A-{NH(CH2)2S-CH2CONH‑fluorescein‑5‑yl} [fluorescein-labeled peptide 7]																		1.8 µM	0.203 µM
